From patent publication US7273618B2, “Method for administering agents to the central nervous system” (Chiron Corporation, priority 1998, dated 2007)

Experiments:
Assay type in all cases: in vivo, Sprague-Dawley rats
Settings in all cases: rat, 7.4 nmol
[1] = Sublingual administration of 125I-IGF-I, tissue distribution by gamma counting
Procedure: Male Sprague-Dawley rats, 200-310 grams, were anesthetized with intraperitoneal pentobarbital (40 mg/kg). Drug delivery to the brain and spinal cord was assessed after sublingual administration of 7.4 nmol of ^125I-IGF-I in phosphate buffered saline, pH 7.4. Rats were placed in on their bellies with posterior elevated and mouth lowered. ^125I-IGF-I (7.4 nmol) on a small strip of filter paper was placed under the tongue. Such methods for sublingual administration are known in the art. Purushotham et al. Am J. Physiol. 269,G867-G873 (1995). Rats subsequently underwent perfusion-fixation within minutes following the completion of ^125I-IGF-I administration. Perfusion-fixation was performed with 50-100 ml physiologic saline followed by 500 ml of fixative containing 1.25% glutaraldehyde and 1% paraformaldehyde in 0.1 M Sorenson's phosphate buffer, pH 7.4, prior to dissection and ^125I measurement by gamma counting. Areas dissected included selected brain regions as well as the cervical, thoracic and sacral regions of the spinal cord.

[2] = Transdermal administration (skin of the face) of 125I-IGF-I, tissue distribution by gamma counting
Procedure: Male Sprague-Dawley rats, 200-310 grams, are anesthetized with intraperitoneal pentobarbital (40 mg/kg). Drug delivery to the brain and spinal cord was assessed after transdermal administration of 7.4 nmol of ^125I-IGF-I in phosphate buffered saline, pH 7.4. Rats are placed in on their bellies with posterior elevated and mouth lowered. ^125I-IGF-I (7.4 nmol) placed on the skin of the rat's face. Rats subsequently underwent perfusion-fixation within minutes following the completion of ^125I-IGF-I administration. Perfusion-fixation was performed with 50-100 ml physiologic saline followed by 500 ml of fixative containing 1.25% glutaraldehyde and 1% paraformaldehyde in 0.1 M Sorenson's phosphate buffer, pH 7.4, prior to dissection and ^125I measurement by gamma counting. Areas dissected included selected brain regions as well as the cervical, thoracic and sacral regions of the spinal cord.

[3] = Conjunctival administration (lower eyelid) of 125I-IGF-I, tissue distribution by gamma counting

In the case of “125I-IGF-I: insulin-like growth factor I, a single chain peptide having 70 amino acids and a molecular weight of about 7,600 daltons, radioiodinated”, the “concentration in meninges or dura surrounding olfactory bulb, dorsal and ventral regions of the brain, trigeminal nerve and upper cervical spinal cord” value [1] is reported as “High concentrations”, the “concentration in the trigeminal nerve itself” value [1] is reported as “high concentrations” and the “presence in the olfactory bulb, spinal cord and brain stem” value [1] is reported as “found”. The “concentration of neurologic agent in spinal cord regions (comparison)” value ([1]; cervical, thoracic, lumbar or sacral regions) was “higher in the cervical region of the spinal cord than in the thoracic region and higher in the thoracic region than in the lumbar or sacral regions”, the “appearance of neurologic agent in the brain and spinal cord (radioactivity)” value (“appearance of neurologic agent” for short) ([1]; perfusion-fixation within minutes after administration) was “Rapid appearance” and the “appearance of neurologic agent” value [2] was “Rapid appearance”. The “appearance of neurologic agent” value [3] was “Rapid appearance”.
